T1: human MerTK-his protein (human, UniProt Q12866 21-505)
T1 construct: extracellular domain; also called hMerTK-His; human MerTK protein
T1 sequence (looked up): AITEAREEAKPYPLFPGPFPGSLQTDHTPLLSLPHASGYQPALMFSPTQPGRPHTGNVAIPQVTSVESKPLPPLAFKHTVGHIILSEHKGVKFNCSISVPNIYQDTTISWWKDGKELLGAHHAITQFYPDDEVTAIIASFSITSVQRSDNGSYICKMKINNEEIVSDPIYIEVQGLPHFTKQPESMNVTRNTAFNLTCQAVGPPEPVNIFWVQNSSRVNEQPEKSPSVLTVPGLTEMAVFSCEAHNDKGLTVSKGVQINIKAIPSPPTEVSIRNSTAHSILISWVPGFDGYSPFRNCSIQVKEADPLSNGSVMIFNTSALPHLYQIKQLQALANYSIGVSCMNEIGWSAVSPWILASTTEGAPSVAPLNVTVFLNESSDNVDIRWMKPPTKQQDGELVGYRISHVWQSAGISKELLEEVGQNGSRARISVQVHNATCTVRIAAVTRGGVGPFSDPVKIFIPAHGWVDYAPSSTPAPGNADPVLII

T2: human MerTK expressed on cells (human, UniProt Q12866 21-999)
T2 construct: whole, on cells; also called CHO-K1-hMerTK; CHO-K1-MerTK
T2 sequence (looked up): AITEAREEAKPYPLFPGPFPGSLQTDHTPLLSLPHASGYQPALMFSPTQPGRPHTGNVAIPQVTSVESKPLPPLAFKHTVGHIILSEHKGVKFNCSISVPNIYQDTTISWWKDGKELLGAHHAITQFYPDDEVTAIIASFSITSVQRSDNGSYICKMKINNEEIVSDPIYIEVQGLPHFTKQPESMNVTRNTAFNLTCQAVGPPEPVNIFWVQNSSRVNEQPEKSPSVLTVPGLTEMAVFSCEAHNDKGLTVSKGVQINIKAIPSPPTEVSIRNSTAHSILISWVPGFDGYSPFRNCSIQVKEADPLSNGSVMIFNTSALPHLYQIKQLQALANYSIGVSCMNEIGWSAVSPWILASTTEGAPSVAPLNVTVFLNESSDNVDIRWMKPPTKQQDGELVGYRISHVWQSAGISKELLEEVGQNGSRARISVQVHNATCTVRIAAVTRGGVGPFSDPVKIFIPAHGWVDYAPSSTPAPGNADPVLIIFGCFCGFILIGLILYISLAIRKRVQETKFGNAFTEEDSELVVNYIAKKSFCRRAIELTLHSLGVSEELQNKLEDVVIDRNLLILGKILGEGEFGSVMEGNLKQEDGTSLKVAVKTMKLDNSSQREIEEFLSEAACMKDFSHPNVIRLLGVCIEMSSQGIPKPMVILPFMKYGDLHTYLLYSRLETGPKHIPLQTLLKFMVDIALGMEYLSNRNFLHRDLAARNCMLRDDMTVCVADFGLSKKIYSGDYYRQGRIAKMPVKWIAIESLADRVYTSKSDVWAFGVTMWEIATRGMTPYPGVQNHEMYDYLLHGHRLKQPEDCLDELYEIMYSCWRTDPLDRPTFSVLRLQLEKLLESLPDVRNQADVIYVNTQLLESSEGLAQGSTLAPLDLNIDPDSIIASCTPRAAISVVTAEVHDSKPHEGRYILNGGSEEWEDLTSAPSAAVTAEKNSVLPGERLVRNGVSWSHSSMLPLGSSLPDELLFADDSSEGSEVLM


How the values were obtained:
human MerTK-his protein [1] = target: T1, human MerTK-his protein; test: SPR Biacore 8K, antibody captured on Protein A chip, 50 nM antigen
Experimental: To explore whether the humanized antibodies could maintain their binding kinetics, affinity ranking were performed with Biacore™. The antibodies were captured with a Protein A chips. Human MerTK-his protein at 50 nM was injected over captured antibodies for 180 s at a flow rate of 30 μL/min. The antigen was allowed to dissociate for 600 s. The experiment was carried out on a Biacore™ 8K. Data analysis was carried out using Biacore™ 8K evaluation software.

[2] = target: T2, human MerTK expressed on cells; test: FACS on CHO-K1 cells overexpressing human MerTK, MFI (AF488)
human MerTK-his protein [3] = target: T1, human MerTK-his protein; test: ELISA, plate coated with human MerTK-his, OD 450nm
Experimental: To evaluate the binding activity, the chimeric mAbs were subjected to ELISA test. Briefly, 96-well plates were coated with human or cyno MerTK-his protein at 2 μg/mL in PBS, 100 μL/well at 4° C. overnight, then blocked with 150 μL/well of 1% BSA. Five-fold dilutions of MerTK antibodies starting from 20 nM were added to each well and incubated for 1 hour at room temperature. The plates were washed with PBS/Tween-20 and then incubated with goat anti-human IgG Fe antibody conjugated with Horse Radish Peroxidase (HRP) for 30 minutes (mins) at room temperature. After washing, the plates were developed with TMB substrate and subsequent stop solution was added to complete the reaction. The signal from each well was read by spectrophotometer at OD 450 nm.
To evaluate the antigen binding activity, the humanized antibodies were subjected to ELISA test as described before.

[4] = target: T2, human MerTK expressed on cells; test: FACS on CHO-K1 cells overexpressing human MerTK, MFI (PE)
Experimental: To evaluate the binding property to the antigen expressed on the cells, the chimeric monoclonal antibodies were analyzed for their binding to human MerTK overexpressed on CHO-K1 cells by FACS. Briefly, human MerTK overexpressing CHO-K1 (CHO-K1-MerTK) cells were firstly incubated with 5-fold serially diluted mAbs starting at 20 nM at 4° C. for 1 hour. After washing with FACS buffer, the PE conjugated anti-human IgG-Fc secondary antibody was added to each well and incubated at 4° C., for 30 mins. The mean fluorescence intensity (MFI) of PE were evaluated by QuantAnalyzer 16.
To evaluate the binding property to the antigen expressed on the cells, the humanized antibodies were analyzed by FACS as described before.

[5] = target: T2, human MerTK expressed on cells; test: FACS on CHO-K1 cells overexpressing human MerTK, MFI (AF488); remark: listed apart in the source
human MerTK-his protein [6] = target: T1, human MerTK-his protein; test: ELISA, plate coated with human MerTK-his, anti-human IgG Fc-HRP, OD 450nm

| Binder | Kd (human MerTK-his protein [1]) [nM] | koff (human MerTK-his protein [1]) [s⁻¹] | kon (human MerTK-his protein [1]) [M⁻¹ s⁻¹] | EC50 [2] [nM] | EC50 (human MerTK-his protein [3]) [nM] | EC50 [4] [nM] | EC50 [5] [nM] | EC50 (human MerTK-his protein [6]) [nM] |
| --- | --- | --- | --- | --- | --- | --- | --- | --- |
| 254B4D9 chimeric monoclonal antibody (antibody, V domains shown) VH: QIQLVQSGPELKKPGETVKISCKASGYTFTAYGMSWVKQAPGKGLQWMGWINTYSGVPTYTDDFKGRFAFSLEASASTAFLQINNLKNEDTSTYFCARRAAVVAKYWYFDVWGTGTTVTVSS VL: DIQMTQSPSSLFASLGGKVIITCKSSQDINKRISWYQHKPGKGPRLLIHSTSSLQPGIPLRFSGSGSGRDYSFSISNLEPEDIATYFCLQYDNLLTFGAGTKLELK | 34.9 | 0.000785 | 22500 | – | 0.095 | – | 1 | – |
| h13B4.v16 benchmark antibody (antibody, V domains shown) VH: EVQLVESGEGLVQPGGSLRLSCAASGFSLSSYAMGWVRQAPGKGLEYVGIINSYGNTYYANWAKGRFTISRDNSKNTVYLQMGSLRAEDMAVYYCARDPGVSSNLWGRGTLVTVSS VL: DIQMTQSPSTLSASVGDRVTITCQASQNIYSGLAWYQQKPGKAPKLLIYGASKLASGVPSRFSGSGSGTEFTLTISSLQPDDFATYYCQATYYSSNSVAFGGGTKVEIK | – | – | – | – | – | – | – | 0.027 |

More lines, now with the values ahead:

| Kd (human MerTK-his protein [1]) [nM] | koff (human MerTK-his protein [1]) [s⁻¹] | kon (human MerTK-his protein [1]) [M⁻¹ s⁻¹] | EC50 [2] [nM] | EC50 (human MerTK-his protein [3]) [nM] | EC50 [4] [nM] | EC50 [5] [nM] | EC50 (human MerTK-his protein [6]) [nM] | Binder |
| --- | --- | --- | --- | --- | --- | --- | --- | --- |
| 0.392 | 7.78e-05 | 199000 | 0.23 | 0.036 | – | – | – | 265F11B5 chimeric monoclonal antibody (antibody, V domains shown) VH: QVQLQQSGPELVKPGASVRLSCKASGYTFTTYDINWVKQRPGLGLEWIGWIYPRDGYTKYNEKFKGRATLAVDTSSSTAYMELHSLTSEDSAVYFCTRGYYDNLYYFDYWGQGTTLTVSS VL: EIVLTQSPTTVAASPGEKITITCSASSIISSNYFHWYQQRPGFSPKLLIYRTSNLASGVPARFSGSGSGTSYSLTIGTMEAEDVATYYCQQGRSVPLTFGAGTKLELK |
| – | – | – | – | 0.024 | 0.23 | – | – | 10F7D9 chimeric monoclonal antibody (antibody, V domains shown) VH: QIQLVQSGPELKKPGETVKISCKASGYTFTNYGMNWVKQAPGKGLKWMGWINTYTGEPTYADDFKGRFAFSLETSASTAYLQINNLKNEDLATYFCATYGHYAWFAYWGQGTLVTVSA VL: QIVLSQSPAILSASPGEKVTMTCRASSSVSYMHWYQQKSGSSPKPWIYATSNLASGVPARFSGSGSGTSYSLTISRVEAEDAATYFCQQWGTKPLTFGAGTKLELK |
